Measurements from the RNAGym collection of RNA variant scans (doi:10.7554/elife.80360).

B1: Hammerhead Ribozyme (parent)
chain: ACCGGAUGUGCUUUCCGGUCUGAUGAGUCCGUGAGGACGAAACAG

Variants of: B1
Experiment: self-cleavage, relative activity (ratio to wild type); higher = more cleavage; co-transcriptional

Point of comparison: ACCGCAUGUGCUUUCCGGUCUGAUGAGUCCGUGAGGACGAAACAA [G5C G45A], self-cleavage 0.384. Against it:
- ACCGCAUGUGCUUUCCGGUCUGAUGAGUGCGUGAGGACGAAACAG [G5C C29G] — lower, 0.344
- ACCGCAUGUGCUUUCCGGUCUGAUGAGUUCGUGAGGACGAAACAG [G5C C29U] — higher, 0.504
- ACCGCAUGUGCUUUCCGGUCUGAUGAGUACGUGAGGACGAAACAG [G5C C29A] — lower, 0.256
- ACCGCAUGUGCUUUCCUGUCUGAUGAGUCCGUGAGGACGAAACAG [G5C G17U] — lower, 0.381
- ACCGCAUGUGCUUUCCAGUCUGAUGAGUCCGUGAGGACGAAACAG [G5C G17A] — lower, 0.313
- ACCGCAUGUGCUUUCCCGUCUGAUGAGUCCGUGAGGACGAAACAG [G5C G17C] — lower, 0.268
- ACCGCAUGUGCUUUCCGGUCUGAUGAGUCAGUGAGGACGAAACAG [G5C C30A] — higher, 0.623
- ACCGCAUGUGCUUUCCGGUCUGAUGAGUCUGUGAGGACGAAACAG [G5C C30U] — higher, 0.539
- ACCGCAUGUGCUUUCCGGUCUGAUGAGUCGGUGAGGACGAAACAG [G5C C30G] — lower, 0.314
- ACCGCUUGUGCUUUCCGGUCUGAUGAGUCCGUGAGGACGAAACAG [G5C A6U] — higher, 0.631
- ACCGCGUGUGCUUUCCGGUCUGAUGAGUCCGUGAGGACGAAACAG [G5C A6G] — higher, 0.437
- ACCGCCUGUGCUUUCCGGUCUGAUGAGUCCGUGAGGACGAAACAG [G5C A6C] — higher, 0.423
- ACCGCAUGUGCUUUCCGGUCUGAUGAGUCCGUGCGGACGAAACAG [G5C A34C] — lower, 0.336
- ACCGCAUGUGCUUUCCGGUCUGAUGAGUCCGUGUGGACGAAACAG [G5C A34U] — higher, 0.477
- ACCGCAUGUGCUUUCCGGUCUGAUGAGUCCGUGGGGACGAAACAG [G5C A34G] — higher, 0.74
- ACCGCAUGUGCUUUCCGGUCUGAUGAGUCCGUGAGGAGGAAACAG [G5C C38G] — lower, 0.278
- ACCGCAUGUGCUUUCCGGUCUGAUGAGUCCGUGAGGAUGAAACAG [G5C C38U] — higher, 0.479
- ACCGCAUGUGCUUUCCGGUCUGAUGAGUCCGUGAGGAAGAAACAG [G5C C38A] — lower, 0.264
- ACCGCAUGUGCUUUCCGGUCUGAUGAGUCCGUGAGGACGAAACAU [G5C G45U] — lower, 0.382
- ACCGCAUGUGCUUUCCGGUCUGAUGAGUCCGUGAGGACGAAACAC [G5C G45C] — higher, 0.397
- ACCGCAUAUGCUUUCCGGUCUGAUGAGUCCGUGAGGACGAAACAG [G5C G8A] — higher, 0.619
- ACCGCAUCUGCUUUCCGGUCUGAUGAGUCCGUGAGGACGAAACAG [G5C G8C] — higher, 0.77
- ACCGCAUUUGCUUUCCGGUCUGAUGAGUCCGUGAGGACGAAACAG [G5C G8U] — higher, 0.693
- ACCGCAUGUGCUUUCCGGUCUGAUAAGUCCGUGAGGACGAAACAG [G5C G25A] — lower, 0.305
- ACCGCAUGUGCUUUCCGGUCUGAUUAGUCCGUGAGGACGAAACAG [G5C G25U] — lower, 0.307
- ACCGCAUGUGCUUUCCGGUCUGAUCAGUCCGUGAGGACGAAACAG [G5C G25C] — higher, 0.397
- ACCGCAUGUGCUUUCCGGUCUGAUGAGUCCGUGAGGACGACACAG [G5C A41C] — lower, 0.249
- ACCGCAUGUGCUUUCCGGUCUGAUGAGUCCGUGAGGACGAUACAG [G5C A41U] — lower, 0.326
- ACCGCAUGUGCUUUCCGGUCUGAUGAGUCCGUGAGGACGAGACAG [G5C A41G] — lower, 0.27
- ACCGAAUGUGCUUUCCGGUCUGAAGAGUCCGUGAGGACGAAACAG [G5A U24A] — higher, 1.21
- ACCGAAUGUGCUUUCCGGUCUGAGGAGUCCGUGAGGACGAAACAG [G5A U24G] — higher, 0.965
- ACCGAAUGUGCUUUCCGGUCUGACGAGUCCGUGAGGACGAAACAG [G5A U24C] — higher, 1.43
- ACCGCAUGUGCUUUCCGGUCUGAUGAGUCCGUGAGGACCAAACAG [G5C G39C] — lower, 0.312
- ACCGCAUGUGCUUUCCGGUCUGAUGAGUCCGUGAGGACUAAACAG [G5C G39U] — lower, 0.251
- ACCGCAUGUGCUUUCCGGUCUGAUGAGUCCGUGAGGACAAAACAG [G5C G39A] — lower, 0.252
- ACCGCAUGUGCUUUCCGGUUUGAUGAGUCCGUGAGGACGAAACAG [G5C C20U] — lower, 0.358
- ACCGCAUGUGCUUUCCGGUAUGAUGAGUCCGUGAGGACGAAACAG [G5C C20A] — lower, 0.271
- ACCGCAUGUGCUUUCCGGUGUGAUGAGUCCGUGAGGACGAAACAG [G5C C20G] — lower, 0.265
- ACCGCAUGUGAUUUCCGGUCUGAUGAGUCCGUGAGGACGAAACAG [G5C C11A] — higher, 0.761
- ACCGCAUGUGGUUUCCGGUCUGAUGAGUCCGUGAGGACGAAACAG [G5C C11G] — higher, 0.873
- ACCGCAUGUGUUUUCCGGUCUGAUGAGUCCGUGAGGACGAAACAG [G5C C11U] — lower, 0.336
- ACCGCAUGUGCUUUCCGGUCUGAUGAGUCCGUCAGGACGAAACAG [G5C G33C] — higher, 0.58
- ACCGCAUGUGCUUUCCGGUCUGAUGAGUCCGUAAGGACGAAACAG [G5C G33A] — higher, 0.776
- ACCGCAUGUGCUUUCCGGUCUGAUGAGUCCGUUAGGACGAAACAG [G5C G33U] — higher, 0.736
- ACCGCAUGUGCUUUCCGGUCUGAUGAGUCCCUGAGGACGAAACAG [G5C G31C] — higher, 0.613
- ACCGCAUGUGCUUUCCGGUCUGAUGAGUCCUUGAGGACGAAACAG [G5C G31U] — higher, 1.02
- ACCGCAUGUGCUUUCCGGUCUGAUGAGUCCAUGAGGACGAAACAG [G5C G31A] — higher, 0.855
- ACCGCAUGUGCUUUCCGGUCUAAUGAGUCCGUGAGGACGAAACAG [G5C G22A] — lower, 0.263
- ACCGCAUGUGCUUUCCGGUCUCAUGAGUCCGUGAGGACGAAACAG [G5C G22C] — lower, 0.243
- ACCGCAUGUGCUUUCCGGUCUUAUGAGUCCGUGAGGACGAAACAG [G5C G22U] — lower, 0.299
- ACCGCAUGUGCUUUGCGGUCUGAUGAGUCCGUGAGGACGAAACAG [G5C C15G] — higher, 1.13
- ACCGCAUGUGCUUUACGGUCUGAUGAGUCCGUGAGGACGAAACAG [G5C C15A] — higher, 0.953
- ACCGCAUGUGCUUUUCGGUCUGAUGAGUCCGUGAGGACGAAACAG [G5C C15U] — higher, 1.31
- ACCGAAUGUGCUUCCCGGUCUGAUGAGUCCGUGAGGACGAAACAG [G5A U14C] — higher, 1.49
- ACCGAAUGUGCUUACCGGUCUGAUGAGUCCGUGAGGACGAAACAG [G5A U14A] — higher, 1.58
- ACCGAAUGUGCUUGCCGGUCUGAUGAGUCCGUGAGGACGAAACAG [G5A U14G] — higher, 1.41
